Measured values from the Immune Epitope Database (IEDB).

Experiments:
Assay in all cases: IEDB peptide-MHC binding, purified MHC/competitive/radioactivity; filed as Kd, often an IC50 or EC50 that approximates it; ≥ and ≤ were set here for values at or beyond the usual limits of such assays
HLA-A*02:02 = molecular target: HLA-A*02:02
HLA-A*02:03 = molecular target: HLA-A*02:03
HLA-A*02:06 = molecular target: HLA-A*02:06
HLA-A*03:01 = molecular target: HLA-A*03:01
HLA-A*11:01 = molecular target: HLA-A*11:01
HLA-A*31:01 = molecular target: HLA-A*31:01
HLA-A*33:01 = molecular target: HLA-A*33:01
HLA-A*68:01 = molecular target: HLA-A*68:01
[1] = source organism: SARS coronavirus Tor2
[2] = source organism: Lymphocytic choriomeningitis virus (strain Armstrong)
[3] = source organism: Vaccinia virus WR
[4] = source organism: Dengue virus 4 Philippines/H241/1956
[5] = source organism: Dengue virus 1 Brazil/97-11/1997
[6] = source organism: Dengue virus 2 Jamaica/1409/1983
[7] = source organism: Mammarenavirus machupoense
[8] = source organism: Triticum aestivum

Sequence | Kd (HLA-A*02:02; [3]) [nM] | Kd (HLA-A*02:03; [3]) [nM] | Kd (HLA-A*02:06; [3]) [nM] | also measured
ALYKGFQFI |  |  |  | Kd (HLA-A*02:02; [1]): 0.532 nM; Kd (HLA-A*02:03; [1]): 3.32 nM; Kd (HLA-A*02:06; [1]): 2.03 nM
AVYNFATCGI |  |  |  | Kd (HLA-A*02:02; [2]): 25.3 nM; Kd (HLA-A*02:03; [2]): 7.28 nM; Kd (HLA-A*02:06; [2]): 25.2 nM
DVNSVQFSI | 10400 | 16200 | 16900 | 
EISSNDNAKI | 11200 | 194 | 162 | 
EQRRSTIFDI | ≥ 23000 | 11400 | ≥ 25600 | 
EVGTNFGTI | 5760 | 1940 | 19900 | 
FLAFLLFLV |  |  |  | Kd (HLA-A*02:02; [1]): 1.81 nM; Kd (HLA-A*02:03; [1]): 58.3 nM; Kd (HLA-A*02:06; [1]): 9 nM
FLAHYIGTS |  |  |  | Kd (HLA-A*02:03; source organism: Dengue virus 3 Martinique/1243/1999): 10.7 nM
FLLPLTSLVI | 11.5 | 5.07 | 2.5 | 
FLNGSCGSV |  |  |  | Kd (HLA-A*02:02; [1]): 1.05 nM; Kd (HLA-A*02:03; [1]): 0.571 nM; Kd (HLA-A*02:06; [1]): 64.5 nM
FLRPVLKAM | 1380 | 9.75 | 5480 | 
FQESFYEDI | 2280 | 4420 | 185 | 
FQPESPARL |  |  |  | Kd (HLA-A*02:06; [4]): 36.9 nM
FTFGDTALYV | 24.3 | 48.1 | 3.51 | 
GIAIFNNRNL | 5.12 | 2040 | 4720 | 
GIVAIDLDPV |  |  |  | Kd (HLA-A*02:06; [5]): 9.7 nM
GLLDSIKMI | 80 | 14.1 | 43.4 | 
GMYYPTNDI | 53.1 | 8.71 | 1680 | 
GQVMLLILCV |  |  |  | Kd (HLA-A*02:06; [6]): 77.2 nM
GVMYAFTTPL | 34.2 | 44.4 | 44.8 | 
IAMWLLLLSI |  |  |  | Kd (HLA-A*02:02; [1]): 85.8 nM; Kd (HLA-A*02:03; [1]): 1900 nM; Kd (HLA-A*02:06; [1]): 498 nM
ILATLNTLIT | 6.95 | 12.3 | 629 | 
IMLIIFWFSL |  |  |  | Kd (HLA-A*02:02; [1]): 1540 nM; Kd (HLA-A*02:03; [1]): 14900 nM; Kd (HLA-A*02:06; [1]): 16800 nM
ITDDSDDYEL | 687 | 11900 | 49.3 | 
ITFLRPVLKA | 3160 | 718 | 18000 | 
ITLDILTEI |  |  |  | Kd (HLA-A*02:06; [4]): 8.88 nM
IVCIVAAVII | 1460 | 1590 | 3560 | 

Sequence | Kd (HLA-A*02:02; [3]) [nM] | Kd (HLA-A*02:03; [3]) [nM] | Kd (HLA-A*02:06; [3]) [nM] | also measured
IVQLPKRGV | 12000 | 8750 | 3120 | 
KIIAVFDSKL | 24.6 | 56.8 | 59.4 | 
KIVGLYGNGV |  |  |  | Kd (HLA-A*02:06; [5]): 14.7 nM
KLFKRERDA | 2390 | 985 | 14900 | 
KLPTWLGAA | 499 | 8.02 | 9.42 | 
KSYFTNAAL |  |  |  | Kd (HLA-A*02:02; [7]): 593 nM; Kd (HLA-A*02:03; [7]): 7180 nM; Kd (HLA-A*02:06; [7]): 12000 nM
LLAMGCYSQV |  |  |  | Kd (HLA-A*02:03; [4]): 2.67 nM
LMAIDLGEL |  |  |  | Kd (HLA-A*02:03; [6]): 15.3 nM
LMLKATLLCV |  |  |  | Kd (HLA-A*02:02; [1]): 3.39 nM; Kd (HLA-A*02:03; [1]): 20.9 nM; Kd (HLA-A*02:06; [1]): 63.4 nM
MAAAKTPVIV | 6010 | 156 | 3630 | 
MLLTFLTSL |  |  |  | Kd (HLA-A*02:02; [1]): 6.21 nM; Kd (HLA-A*02:03; [1]): 4.84 nM; Kd (HLA-A*02:06; [1]): 3.63 nM
NIGCAVNTPV | 126 | 30.3 | 176 | 
NLLLLFVTI |  |  |  | Kd (HLA-A*02:02; [1]): 436 nM; Kd (HLA-A*02:03; [1]): 1600 nM; Kd (HLA-A*02:06; [1]): 456 nM
NVISKIYTLI | 0.985 | 32.7 | 196 | 
PAMSTYSDI | 18300 | ≥ 20600 | ≥ 77100 | 
PVDLVKSSFV | 6610 | 9640 | ≥ 26600 | 
PVVYHDDDNT | 9140 | ≥ 26800 | 1350 | 
QILEENMEV |  |  |  | Kd (HLA-A*02:06; [4]): 30.5 nM
QLEDSEYLFR |  |  |  | Kd (HLA-A*03:01; [3]): 376 nM; Kd (HLA-A*11:01; [3]): 79.1 nM; Kd (HLA-A*31:01; [3]): 182 nM; Kd (HLA-A*33:01; [3]): 40 nM; Kd (HLA-A*68:01; [3]): 90.9 nM
QLMCQPILL |  |  |  | Kd (HLA-A*02:02; [1]): 2.99 nM; Kd (HLA-A*02:03; [1]): 11.9 nM; Kd (HLA-A*02:06; [1]): 76.9 nM
QQQQQQQQQK |  |  |  | Kd (HLA-A*03:01; [8]): 11200 nM; Kd (HLA-A*11:01; [8]): 4840 nM; Kd (HLA-A*31:01; [8]): ≥ 23200 nM; Kd (HLA-A*33:01; [8]): ≥ 70000 nM; Kd (HLA-A*68:01; [8]): ≥ 46700 nM
QVKDNIISR |  |  |  | Kd (HLA-A*03:01; [3]): 2550 nM; Kd (HLA-A*11:01; [3]): 185 nM; Kd (HLA-A*31:01; [3]): 908 nM; Kd (HLA-A*33:01; [3]): 64.8 nM; Kd (HLA-A*68:01; [3]): 11.3 nM
RAKRKPAMST | 977 | 1380 | 1550 | 
RLSAAIGKA |  |  |  | Kd (HLA-A*02:03; source organism: Dengue virus 1 Singapore/S275/1990): 70.7 nM
RLVEEFFNR |  |  |  | Kd (HLA-A*03:01; [3]): 21.2 nM; Kd (HLA-A*11:01; [3]): 88.1 nM; Kd (HLA-A*31:01; [3]): 1.39 nM; Kd (HLA-A*33:01; [3]): 796 nM; Kd (HLA-A*68:01; [3]): 29.4 nM
RSKMLKRGSR |  |  |  | Kd (HLA-A*03:01; [3]): 279 nM; Kd (HLA-A*11:01; [3]): 1170 nM; Kd (HLA-A*31:01; [3]): 0.61 nM; Kd (HLA-A*33:01; [3]): 128 nM; Kd (HLA-A*68:01; [3]): 166 nM
SCDDVVFGI |  |  |  | Kd (HLA-A*02:02; [2]): 2150 nM; Kd (HLA-A*02:03; [2]): ≥ 50400 nM; Kd (HLA-A*02:06; [2]): 14500 nM
